Some results are limits rather than exact numbers.

The text below walks through data of patent publication US8138314B2, “Compositions and methods of monoclonal and polyclonal antibodies specific for T cell subpopulations” (Beth Israel Deaconess Medical Center, Inc., priority 2000, dated 2012).

Assay [1] concerns CD1d-reactive Vα24^+Vβ11^+ T cell lines. As to the kind of experiment: Ex vivo expansion of invariant NK T cell lines with IL-12, stimulation with anti-CD3 and CD161 antibody. Format: cell-based, human. Particulars: for IFN-γ / IL-4 / Proliferation: plate-bound anti-CD3 and excess CD161 antibody. The source says:
NK T cells, CD1d-reactive T cells, or JαQ^+ T cells may be biased towards Th1-like NK or lymphokine-activated killer (LAK)-like cytotoxicity of invariant T cells, as well as, IFN-γ production to potentially augment their in vivo anti-tumor or anti-pathogen activity.

Assay [2] relates to prostate cancer derived invariant NK T cells. As to the kind of experiment: IL-12 treatment of prostate cancer derived invariant NK T cells during last week of culture, cytokine ELISA. Format: cell-based, human. The method, then: Peripheral blood (10-20 ml) was drawn in heparin containing tubes from healthy donors and prostate cancer patients who had given their informed consent. PBMCs were isolated using Ficoll-Paque (Amersham Pharmacia, Uppsala, Sweden). Vα24 positive T cells were stained with an anti-Vα24 monoclonal antibody (C15) (Coulter, Miami, Fla.) followed by a goat anti-mouse IgG (H^+L) FITC conjugate (KPL, Gaithersburg, Md.) and were sorted by high speed FACS (Modular Flow FACS, Cytomation, Boulder, Colo.) (Dellabona et al., J. Exp. Med. 180:1171, 1994). Autologous PBMCs were irradiated (5000 rads) and used as APCs. The FACS purified Vα24^+ cells were initially co-cultured in 96 well flat bottomed plates (approximately 20,000 per well) with equal numbers of autologous irradiated PBMCs in the presence of α-GalCer (50 ng/ml, KRN7000, Kirin Brewery Co., Gunma, Japan) and recombinant IL-2 (100 U/ml) (National Cancer Institute, Bethesda, Md.). […]
In addition to being present at reduced levels, invariant NK T cells have reduced activity in prostate cancer patients. […] Released cytokine levels were determined in triplicates by capture ELISA with matched antibody pairs in relation to cytokine standards (Endogen, Inc. Cambridge, Mass.). […]
As invariant NK T cells may contribute to the anti-tumor effects of IL-12, it was next determined whether these cancer patient derived cells could respond to IL-12. […]
On the technique in general: An ELISA detects its analyte on a solid surface through an enzyme-linked reagent.

B1: IL-12: human recombinant IL-12 (Genetics Institute), cytokine biasing T cells towards Th1 responses (protein, UniProt P29459 23-219; P29460 23-328, looked up)
Interleukin-12 subunit alpha: RNLPVATPDPGMFPCLHHSQNLLRAVSNMLQKARQTLEFYPCTSEEIDHEDITKDKTSTVEACLPLELTKNESCLNSRETSFITNGSCLASRKTSFMMALCLSSIYEDLKMYQVEFKTMNAKLLMDPKRQIFLDQNMLAVIDELMQALNFNSETVPQKSSLEEPDFYKTKIKLCILLHAFRIRAVTIDRVMSYLNAS
Interleukin-12 subunit beta: IWELKKDVYVVELDWYPDAPGEMVVLTCDTPEEDGITWTLDQSSEVLGSGKTLTIQVKEFGDAGQYTCHKGGEVLSHSLLLLHKKEDGIWSTDILKDQKEPKNKTFLRCEAKNYSGRFTCWWLTTISTDLTFSVKSSRGSSDPQGVTCGAATLSAERVRGDNKEYEYSVECQEDSACPAAEESLPIEVMVDAVHKLKYENYTSSFFIRDIIKPDPPKNLQLKPLKNSRQVEVSWEYPDTWSTPHSYFSLTFCVQVQGKSKREKKDRVFTDKTSATVICRKNASISVRAQDRYYSSSWSEWASVPCS
In assay [1] (line 1, established with IL-12), B1 displayed an IFN-γ/IL-4 above 100, an IFN-γ above 500, an IL-4 of 4.8 and a Proliferation of 56593. Also, in assay [1] (line 2, established with IL-12), the IFN-γ/IL-4 worked out at 207, the IFN-γ is reported as 331.8, the IL-4 was 1.6 and the Proliferation was 42499. Further, in assay [2] (1 ng/ml during the last week of culture), the IFN-γ production result is reported as “marked increase in IFN-γ production”. In addition, the “Ratios of IFN-γ/IL-4 production” value in assay [2] (1 ng/ml during the last week of culture (FIG. 22E)) was “comparable to those in the healthy donors”.
